# Assay results from the supplement of paper PMC10567573.
# B1: TRIM43 (parent)
# chain: NNSWIRKNSTMVNSEDIFLLLCLK
# Variants of: B1
# Assay: protein stability index of a GFP-peptide fusion (GPS, HEK-293T) (PSI 1-6); higher = more stable
# Details: c terminus: a fixed tail appended
# 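Also: lentivirally expressed fusions sorted by FACS into six bins by GFP to DsRed ratio, PSI derived from sequencing read proportions per bin multiplied by bin number.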
row,Variant,protein stability index
1,NNSWIRKNSTMVNSEDIFLLLCFK [L23F],3.62
2,NNSWIRKNSTMVNSEDIFLLLCHK [L23H],2.61
3,NNSWIRKNSTMVNSEDIFLLLCNK [L23N],1.66
4,NNSWIRKNSTMVNSEDIFLLLCDK [L23D],1.95
5,NNSWIRKNSTMVNSEDIFLLLCEK [L23E],1.93
6,NNSWIRKNSTMVNSEDIFLLLCAK [L23A],2.83
7,NNSWIRKNSTMVNSEDIFLLLCQK [L23Q],2.38
8,NNSWIRKNSTMVNSEDIFLLLCPK [L23P],2.15
9,NNSWIRKNSTMVNSEDIFLLLCGK [L23G],1.44
10,NNSWIRKNSTMVNSEDIFLLLCKK [L23K],1.54
11,NNSWIRKNSTMVNSEDIFLLLCCK [L23C],1.84
12,NNSWIRKNSTMVNSEDIFLLLGLK [C22G],2.32
13,NNSWIRKNSTMVNSEDIFLLLILK [C22I],2.66
14,NNSWIRKNSTMVNSEDIFLLLKLK [C22K],2.13
15,NNSWIRKNSTMVNSEDIFLLLELK [C22E],2.33
16,NNSWIRKNSTMVNSEDIFLLLTLK [C22T],2.19
17,NNSWIRKNSTMVNSEDIFLLLDLK [C22D],1.94
18,NNSWIRKNSTMVNSEDIFLLLMLK [C22M],2.61
19,NNSWIRKNSTMVNSEDIFLLLVLK [C22V],2.96
20,NNSWIRKNSTMVNSEDIFLLLWLK [C22W],2.66
21,NNSWIRKNSTMVNSEDIFLLLYLK [C22Y],3.36
22,NNSWIRKNSTMVNSEDIFLLLNLK [C22N],2.32
23,NNSWIRKNSTMVNSEDIFLLLQLK [C22Q],2.06
24,NNSWIRKNSTMVNSEDIFLLLRLK [C22R],1.91

row,Variant,protein stability index
1,NNSWIRKNSTMVNSEDIFLLLSLK [C22S],2.72
2,NNSWIRKNSTMVNSEDIFLLLPLK [C22P],2.44
3,NNSWIRKNSTMVNSEDIFLLLLLK [C22L],3.17
4,NNSWIRKNSTMVNSEDIFLLLALK [C22A],1.91
5,NNSWIRKNSTMVNSEDIFLLLHLK [C22H],2.62
6,NNSWIRKNSTMVNSEDIFQLLCLK [L19Q],2.21
7,NNSWIRKNSTMVNSEDIFDLLCLK [L19D],2.01
8,NNSWIRKNSTMVNSEDIFNLLCLK [L19N],1.83
9,NNSWIRKNSTMVNSEDIFGLLCLK [L19G],1.8
10,NNSWIRKNSTMVNSEDIFELLCLK [L19E],1.79
11,NNSWIRKNSTMVNSEDIFALLCLK [L19A],2.25
12,NNSWIRKNSTMVNSEDIFFLLCLK [L19F],2.07
13,NNSWIRKNSTMVNSEDIFSLLCLK [L19S],1.63
14,NNSWIRKNSTMVNSEDIFRLLCLK [L19R],1.7
15,NNSWIRKNSTMVNSEDIFCLLCLK [L19C],2.32
16,NNSWIRKNSTMVNSEDIFKLLCLK [L19K],1.54
17,NNSWIRKNSTMVNSEDIFWLLCLK [L19W],2.33
18,NNSWIRKNSTMVNSEDIFMLLCLK [L19M],2.08
19,NNSWIRKNSTMVNSEDIFILLCLK [L19I],2.63
20,NNSWIRKNSTMVNSEDIFVLLCLK [L19V],3.1
21,NNSWIRKNSTMVNSEDIFYLLCLK [L19Y],3.02
22,NNSWIRKNSTMVNSEDIFHLLCLK [L19H],1.7
23,NNSWIRKNSTMVNSEDIFTLLCLK [L19T],1.69
24,NNSWIRKNSTMVNSEDIFPLLCLK [L19P],1.95

row,Variant,protein stability index
1,NNSWIRKNSTMVNSEDISLLLCLK [F18S],1.64
2,NNSWIRKNSTMVNSEDITLLLCLK [F18T],1.83
3,NNSWIRKNSTMVNSEDIPLLLCLK [F18P],1.85
4,NNSWIRKNSTMVNSEDIWLLLCLK [F18W],2.46
5,NNSWIRKNSTMVNSEDIYLLLCLK [F18Y],4.65
6,NNSWIRKNSTMVNSEDIRLLLCLK [F18R],2.63
7,NNSWIRKNSTMVNSEDIVLLLCLK [F18V],2.92
8,NNSWIRKNSTMVNSEDIQLLLCLK [F18Q],2.5
9,NNSWIRKNSTMVNSEDIFLPLCLK [L20P],2.46
10,NNSWIRKNSTMVNSEDIFLTLCLK [L20T],2.72
11,NNSWIRKNSTMVNSEDIFLSLCLK [L20S],2.28
12,NNSWIRKNSTMVNSEDIFLHLCLK [L20H],2.5
13,NNSWIRKNSTMVNSEDIFLILCLK [L20I],2.64
14,NNSWIRKNSTMVNSEDIFLVLCLK [L20V],2.57
15,NNSWIRKNSTMVNSEDIFLMLCLK [L20M],3.31
16,NNSWIRKNSTMVNSEDIFLDLCLK [L20D],2.27
17,NNSWIRKNSTMVNSEDIFLQLCLK [L20Q],3.05
18,NNSWIRKNSTMVNSEDIFLELCLK [L20E],1.75
19,NNSWIRKNSTMVNSEDIFLCLCLK [L20C],2.25
20,NNSWIRKNSTMVNSEDIFLNLCLK [L20N],3
21,NNSWIRKNSTMVNSEDIFLFLCLK [L20F],2.92
22,NNSWIRKNSTMVNSEDIFLKLCLK [L20K],2.36
23,NNSWIRKNSTMVNSEDIFLYLCLK [L20Y],2.75
24,NNSWIRKNSTMVNSEDIFLALCLK [L20A],2.14

row,Variant,protein stability index
1,NNSWIRKNSTMVNSEDIFLWLCLK [L20W],3.12
2,NNSWIRKNSTMVNSEDIFLGLCLK [L20G],1.48
3,NNSWIRKNSTMVNSEDIFLRLCLK [L20R],1.72
4,NNSWIRKNSTMVNSEDIFLLWCLK [L21W],2.91
5,NNSWIRKNSTMVNSEDIFLLVCLK [L21V],3.54
6,NNSWIRKNSTMVNSEDIFLLTCLK [L21T],2.96
7,NNSWIRKNSTMVNSEDIFLLHCLK [L21H],2.39
8,NNSWIRKNSTMVNSEDIFLLSCLK [L21S],2.65
9,NNSWIRKNSTMVNSEDIFLLCCLK [L21C],3.87
10,NNSWIRKNSTMVNSEDIFLLQCLK [L21Q],2.44
11,NNSWIRKNSTMVNSEDIFLLRCLK [L21R],1.94
12,NNSWIRKNSTMVNSEDIFLLFCLK [L21F],1.95
13,NNSWIRKNSTMVNSEDIFLLPCLK [L21P],2.37
14,NNSWIRKNSTMVNSEDIFLLGCLK [L21G],1.83
15,NNSWIRKNSTMVNSEDIFLLMCLK [L21M],3.25
16,NNSWIRKNSTMVNSEDIFLLICLK [L21I],3.08
17,NNSWIRKNSTMVNSEDIFLLKCLK [L21K],2.58
18,NNSWIRKNSTMVNSEDIFLLECLK [L21E],3.8
19,NNSWIRKNSTMVNSEDIFLLACLK [L21A],2.13
20,NNSWIRKNSTMVNSEDIFLLYCLK [L21Y],2.9
21,NNSWIRKNSTMVNSEDIFLLNCLK [L21N],1.58
22,NNSWIRKNSTMVNSEDIFLLDCLK [L21D],1.92
